Data on 1 molecule can be found in article PMC4755738, “Actin filaments target the oligomeric maturation of the dynamin GTPase Drp1 to mitochondrial fission sites” (eLife, 2015).

Experiment [1] addresses T1, Rabbit skeletal muscle actin (filaments) (rabbit, UniProt P68135 1-377). The experiment is described as follows: cell-based or functional assay.
The target of experiment [2] is T1, Rabbit skeletal muscle actin (filaments). The experiment is described as follows: co-sedimentation; high-speed co-sedimentation; Drp1 1.3 uM with pre-polymerized actin filaments 0.25-10 uM, 1 hr at 23 C, 200 ul, ionic strength 75 mM (NaCl); 80,000 rpm 20 min 4 C (TLA-100.1); pellets on SDS-PAGE, Colloidal blue, ImageJ; apparent Kd. The following applies: both partners purified.

B1: Human Drp1 isoform 000 (E. coli-purified) (enzyme)
chain: MEALIPVINKLQDVFNTVGADIIQLPQIVVVGTQSSGKSSVLESLVGRDLLPRGTGIVTRRPLILQLVHVSQEDKRKTTGEENGVEAEEWGKFLHTKNKLYTDFDEIRQEIENETERISGNNKGVSPEPIHLKIFSPNVVNLTLVDLPGMTKVPVGDQPKDIELQIRELILRFISNPNSIILAVTAANTDMATSEALKISREVDPDGRRTLAVITKLDLMDAGTDAMDVLMGRVIPVKLGIIGVVNRSQLDINNKKSVTDSIRDEYAFLQKKYPSLANRNGTKYLARTLNRLLMHHIRDCLPELKTRINVLAAQYQSLLNSYGEPVDDKSATLLQLITKFATEYCNTIEGTAKYIETSELCGGARICYIFHETFGRTLESVDPLGGLNTIDILTAIRNATGPRPALFVPEVSFELLVKRQIKRLEEPSLRCVELVHEEMQRIIQHCSNYSTQELLRFPKLHDAIVEVVTCLLRKRLPVTNEMVHNLVAIELAYINTKHPDFADACGLMNNNIEEQRRNRLARELPSAVSRDKVASGGGGVGDGVQEPTTGNWRGMLKTSKAEELLAEEKSKPIPIMPASPQKGHAVNLLDVPVPVARKLSAREQRDCEVIERLIKSYFLIVRKNIQDSVPKAVMHFLVNHVKDTLQSELVGQLYKSSLLDDLLTESEDMAQRRKEAADMLKALQGASQIIAEIRETHLW
notes: Drp1 (dynamin-related protein 1), human, isoform 000 of Strack et al. 2013; Cloned in pET16b with an N-terminal Strep-tag followed by an HRV3C protease site; eluted from the resin by HRV3C cleavage; Used in high-speed co-sedimentation and GTPase assays; also called dynamin GTPase Drp1; not shown: Strep-tag, N-terminal, cleaved
For the molecule B1, the “Drp1 GTPase activity (malachite green phosphate release) with 0.5 or 1 uM pre-polymerized actin filaments, against Drp1 alone” value in experiment [1] is around 3.5 fold. In addition, the Kd in experiment [2] is 800 ± 400 nM.
